Numbering of substitutions follows the chain as printed.
T1: mouse PRLR on Baf3-mPRLR cells (mouse, UniProt Q08501 20-608)
T1 construct: whole, on cells
T1 sequence (looked up): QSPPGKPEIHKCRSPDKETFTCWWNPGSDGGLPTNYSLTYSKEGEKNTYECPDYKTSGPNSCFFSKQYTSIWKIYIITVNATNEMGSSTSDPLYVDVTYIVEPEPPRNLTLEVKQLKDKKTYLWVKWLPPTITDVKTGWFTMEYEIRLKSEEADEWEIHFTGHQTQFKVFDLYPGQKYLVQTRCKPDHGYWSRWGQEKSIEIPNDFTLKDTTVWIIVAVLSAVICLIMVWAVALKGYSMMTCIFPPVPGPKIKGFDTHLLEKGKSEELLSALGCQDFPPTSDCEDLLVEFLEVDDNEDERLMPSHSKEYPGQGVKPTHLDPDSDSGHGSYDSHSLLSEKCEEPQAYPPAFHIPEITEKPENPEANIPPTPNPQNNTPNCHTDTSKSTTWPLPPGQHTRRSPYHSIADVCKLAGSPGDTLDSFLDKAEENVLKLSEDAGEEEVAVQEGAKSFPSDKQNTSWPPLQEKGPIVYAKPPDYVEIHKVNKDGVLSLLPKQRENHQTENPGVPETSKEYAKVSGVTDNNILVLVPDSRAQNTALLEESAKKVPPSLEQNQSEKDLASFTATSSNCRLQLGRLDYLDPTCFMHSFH

T2: human PRLR on cells (human, UniProt P16471 25-622)
T2 construct: Endogenous on T47D cells, transfected in Baf3-hPRLR cells; also called hPRLR; T47D cells
T2 sequence: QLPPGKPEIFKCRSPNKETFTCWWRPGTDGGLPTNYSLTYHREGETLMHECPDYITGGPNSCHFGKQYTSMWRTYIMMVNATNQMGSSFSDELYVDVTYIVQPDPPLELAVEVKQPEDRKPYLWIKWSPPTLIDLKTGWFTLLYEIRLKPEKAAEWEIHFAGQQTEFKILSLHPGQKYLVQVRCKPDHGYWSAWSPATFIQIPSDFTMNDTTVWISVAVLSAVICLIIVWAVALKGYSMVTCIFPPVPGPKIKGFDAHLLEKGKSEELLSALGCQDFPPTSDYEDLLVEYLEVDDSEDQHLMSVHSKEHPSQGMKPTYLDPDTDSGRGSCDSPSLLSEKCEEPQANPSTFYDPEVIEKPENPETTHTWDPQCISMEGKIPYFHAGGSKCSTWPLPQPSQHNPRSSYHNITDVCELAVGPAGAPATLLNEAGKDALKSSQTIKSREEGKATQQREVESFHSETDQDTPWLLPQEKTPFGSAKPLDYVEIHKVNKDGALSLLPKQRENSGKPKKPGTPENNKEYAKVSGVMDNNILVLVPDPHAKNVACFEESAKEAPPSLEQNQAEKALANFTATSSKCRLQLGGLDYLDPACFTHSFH

T3: rat PRLR on Nb2-11 rat lymphoma cells (rat, UniProt P05710 20-610)
T3 construct: whole, on cells
T3 sequence (looked up): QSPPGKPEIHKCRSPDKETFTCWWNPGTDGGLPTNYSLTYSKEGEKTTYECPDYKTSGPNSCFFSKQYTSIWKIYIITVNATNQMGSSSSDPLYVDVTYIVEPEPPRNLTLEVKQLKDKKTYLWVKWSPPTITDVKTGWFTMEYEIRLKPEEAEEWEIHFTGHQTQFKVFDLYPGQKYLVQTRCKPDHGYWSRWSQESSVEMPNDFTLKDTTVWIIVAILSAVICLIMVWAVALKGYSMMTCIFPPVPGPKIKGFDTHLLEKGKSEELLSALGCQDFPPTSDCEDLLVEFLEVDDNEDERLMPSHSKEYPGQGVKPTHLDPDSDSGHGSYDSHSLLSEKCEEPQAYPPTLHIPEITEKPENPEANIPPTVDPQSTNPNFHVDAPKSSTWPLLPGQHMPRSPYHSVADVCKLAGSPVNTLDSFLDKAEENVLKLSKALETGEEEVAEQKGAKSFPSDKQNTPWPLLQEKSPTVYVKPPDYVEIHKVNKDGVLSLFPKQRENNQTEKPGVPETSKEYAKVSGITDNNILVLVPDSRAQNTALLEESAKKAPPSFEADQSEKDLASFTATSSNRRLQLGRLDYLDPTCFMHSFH

T4: mouse PRLR ECD-Fc fusion protein (mouse, UniProt Q08501 20-229)
T4 construct: extracellular domain; not shown: Fc region (captured by goat anti-human Fc)
T4 sequence (looked up): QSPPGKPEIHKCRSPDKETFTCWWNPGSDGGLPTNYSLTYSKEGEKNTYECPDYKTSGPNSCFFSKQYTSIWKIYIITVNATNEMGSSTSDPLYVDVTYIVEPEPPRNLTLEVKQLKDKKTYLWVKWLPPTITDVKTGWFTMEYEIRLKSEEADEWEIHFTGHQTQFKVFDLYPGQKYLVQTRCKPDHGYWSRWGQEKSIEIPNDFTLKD

T5: rat PRLR ECD-Fc fusion protein (rat, UniProt P05710 20-229)
T5 construct: extracellular domain; not shown: Fc region (captured by goat anti-human Fc)
T5 sequence (looked up): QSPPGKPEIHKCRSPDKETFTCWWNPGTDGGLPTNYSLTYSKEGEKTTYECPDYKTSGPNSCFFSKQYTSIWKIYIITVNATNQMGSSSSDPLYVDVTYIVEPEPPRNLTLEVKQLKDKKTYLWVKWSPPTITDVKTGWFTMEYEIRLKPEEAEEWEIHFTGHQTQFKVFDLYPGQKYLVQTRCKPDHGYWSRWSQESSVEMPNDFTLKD

B1: LFA102 (antibody, human IgG1, kappa, V domains shown)
VH: EVQLVESGGGLVQPGGSLRLSCAVSGFTFSSYGMSWVRQAPGKRLEWVATVSSGGTYTYYPDSVKGRFTISRDNSKNTLYLQMNSLRAEDTAMYYCARHRGNYYATYYYAMDYWGQGTLVTVSS
VL: DIVLTQSPDSLAVSLGERATINCKASKSVSTSGYTYMHWYQQKPGQPPKLLIYLASNRESGVPDRFSGSGSGTDFTLTISPVQAEDVATYYCQHSGELPPSFGQGTKLEIKR
notes: humanized IgG1 kappa comparator (WO 2008022295)
B2: Ab6 (antibody, V domains shown)
VH: QVQLQQPGAELVMPGSSVKLSCKASGYTFTTYWMHWVKQRPGQGLEWIGEIDPSDSYSNYNQKFKDKATLTVDKSSSTAYMQLSSLTSEDSAVYYCARNGGLGPAWFSYWGQGTLVTVSA
VL: DIVMTQSQKFMSTTVGDRVSITCKASQYVGTAVAWYQQKPGQSPKLLIYSASNRYTGVPDRFTDSGSGTDFTLTISNLQSEDLADYFCQQYSSYPWTFGGGTKLEIK
notes: murine monoclonal, isotype G1; also called murine Ab6
B3: Ab10 (antibody, V domains shown)
VH: EVQLHQSGPELVKPGASVKISCKASGYTFTDYNMHWMKQSHGKSLEWIGYFYPYNGGTGYNQEFKNKATLTVDISSSTAYMELRRLTSEDSAVYYCARGGWGIYYAMDYWGQGTSVTVSS
VL: DIQMTQSPASLSASVGETVTITCRASENIYSYLTWYQQKQGKSPQLLVYNAKTLAEGVPSRFSGSGSGTQFSLKINSLQPEDFGSYHCQHHSVTPLTFGAGTKLELK
notes: murine monoclonal, isotype G2a; also called murine Ab10
B4: Ab5 (antibody, V domains shown)
VH: QVQLQQPGAELVRPGTSVKLSCKASGYTFTSFWMHWVKQRPGQGLEWIGVIDPSDTYTNYNQKFKGKATLTVDTSSSTAYMQLSSLTSEDSAVYYCARGDYSNWFTYWGQGTLVTVSA
VL: DVVMTQTPLSLPVSLGDQASISCRSSQRLVHSNGNTYLHWYLQKPGQSPKLLIYKVSNRFSGVPDRFSGSGSGTDFTLKISRVEAEDLGVYFCSQSTHVPWTFGGGTKLEIK
notes: murine monoclonal, isotype G2a; also called murine Ab5
B5: Ab11 (antibody, V domains shown)
VH: EVKLVESGGGLVQPGGSLKLSCAASGFTFSDYYMFWVRQTPEKSLEWVAYISNGGGSTYYPDTVKGRFTISRDNAKNTLYLQMSRLKSEDTAMYYCSRQLFYYGSRGAMGYWGQGTSVTVSS
VL: B4 VL with V3L, R28S, L29I, H39E, F92Y, S94F, S96G, T97S, W101F, G105S
notes: murine monoclonal, isotype G1; also called murine Ab11
B6: Ab7 (antibody, V domains shown)
VH: QVQLQQPGAELVMPGTSVKLSCKASGYTFTSYWIHWVKQRPGQGLEWIGEIDPSDSYTNYNQKFKGKATLTVDRSSSTAYMQLSSLTSEDSAVYYCGRSFFTNWFAYWGQGTLVTVSA
VL: B4 VL with R28S, S81N, W101F, G105S
notes: murine monoclonal, isotype G1; also called murine Ab7
B7: Ab13 (antibody, V domains shown)
VH: B4 VH with T56S, Y57H, D73N, Q82H
VL: B4 VL with L9F, R28S, G89E, V90L
notes: murine monoclonal, isotype G2a; also called murine Ab13
B8: chAb7 (antibody, human IgG1, kappa, V domains shown)
VH: B6 VH
VL: DVVMTQTPLSLPVSLGDQASISCRSSQSLVHSNGNTYLHWYLQKPGQSPKLLIYKVSNRFSGVPDRFSGSGSGTDFTLKINRVEAEDLGVYFCSQSTHVPFTFGSGTKLEIKT
notes: chimeric, murine variable and human G1/kappa constant regions
B9: chAb8 (antibody, human IgG1, kappa, V domains shown)
VH: EVQLQQSGPELVKPGASVKISCKASGYTFTDYNIHWVKQSHGKSLEWIGYIYPNNDGTGYNQKFKSKATLTVDNSSSTAYMEVRSLTSEDSAVYYCARGDGNYVGDMDYWGQGTSVTVSS
VL: DIQMTQSPASLSASVGETVTITCRASENIYSYLAWYQQKQGKPPQLLVYNAKTLAEGVPSRFSGGGSGTQFSLKINSLQPEDFGSYYCQHHYATPFTFGSGTKLEIKT
notes: as for B8
B10: Ab30 (antibody, human IgG1, kappa, V domains shown)
VH: EVQLVQSGAEVKKPGSSVKVSCKASGYTFTSFWMHWVRQAPGQGLEWIGVIDPSDTYTNYNQKFKGRATLTVDESSSTAYMELSSLRSEDTAVYYCARGDYSNWFTYWGQGTLVTVSS
VL: DVVMTQTPLSLSVTPGQPASISCRSSQRLVHSNGNTYLHWYLQKPGQSPQLLIYKVSNRFSGVPDRFSGSGSGTDFTLKISRVEAEDVGVYFCSQSTHVPWTFGGGTKVEIKR
notes: humanized from Ab5; G1; also called Ab2 HC.1a and Ab2 LC.1a
B11: chAb5 (antibody, human IgG1, kappa, V domains shown)
VH: B4 VH
VL: B8 VL with S28R, N81S, F101W, S105G
notes: as for B8

Each binder was assayed against T1, mouse PRLR on Baf3-mPRLR cells (assay: FACS Baf3-mPRLR 10 ug/mL).
Procedure: (§1) Nb2-11 and Baf3-xPRLR cells were resuspended in FACS buffer (PBS+1% FBS) at 2 millions cells/mL. Cells were added to round bottom 96-well plate (100 uL/well) and treated with testing PRLR antibodies for 1 hr at 4 C. Cells were then washed with FACS buffer twice and incubated with 2nd antibody conjugated to ALEXA488 (Invitrogen) for 1 hr at 4 C. After two washes in FACS buffer, cells were resuspended in 1% formaldehyde in PBS. Cells were analyzed using LSRII flowcytometer.

Compared with B1, B2 is lower in “FACS GeoMean-neg” value: 4 for the first, 0 for the second.

First: B3
Second: B4
The “FACS GeoMean-neg” value of the first is lower: 49 for the first, 166 for the second.

Compared with B5, B6 is higher in “FACS GeoMean-neg” value: 25 for the first, 27 for the second.

In the case of B7, the “FACS GeoMean-neg” value is reported as 143.

These binders were tested against T2, human PRLR on cells (assay: FACS T47D 10 ug/mL).

First: B1
Second: B2
The “FACS GeoMean-neg” value of the first is lower: 1640 for the first, 1840 for the second.

Going from B3 to B4, the “FACS GeoMean-neg” value falls from 2720 to 1610.

Compared with B5, B6 is higher in “FACS GeoMean-neg” value: 2220 for the first, 2380 for the second.

For B7, the “FACS GeoMean-neg” value was 1500.

These binders were tested against T3, rat PRLR on Nb2-11 rat lymphoma cells (assay: FACS Nb2-11 20 ug/mL).
Procedure: as §1

First: B1
Second: B2
The “FACS GeoMean-neg” value of the first is higher: 98 for the first, 0 for the second.

First: B3
Second: B4
The “FACS GeoMean-neg” value of the first is lower: 16 for the first, 90 for the second.

Compared with B5, B6 is lower in “FACS GeoMean-neg” value: 94 for the first, 82 for the second.

For B7, the “FACS GeoMean-neg” value was 60.

Each binder was assayed against T4, mouse PRLR ECD-Fc fusion protein (assay: ELISA on ECD).
How it was run: (§2)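 EC50 values derive from fitted binding curves of antibody serial dilutions (1 h) on captured PRLR. Detection used an HRP-conjugated secondary (1 h), TMB development for 3–5 min, an H₂SO₄ stop and a 450 nm read, with all steps in Tween/PBS pH 7.4 buffer.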

Going from B8 to B9, the EC50 rises from 0.184 nM to 1.02 nM (5.5-fold).

Going from B3 to B10, the EC50 falls from 1.14 nM to 0.198 nM (5.8-fold). The second is the more potent here.

B4 and B5 are within 1.5-fold of each other in EC50: 0.098 nM for the first, 0.086 nM for the second.

B6 and B11 are within 1.5-fold of each other in EC50: 0.143 nM for the first, 0.12 nM for the second.

In the case of B7, the EC50 is reported as 0.088 nM.

Each binder was assayed against T5, rat PRLR ECD-Fc fusion protein (assay: ELISA on ECD).
How it was run: as §2

B1 and B8 are the same in EC50: 0.157 nM for the first, 0.157 nM for the second.

B9 and B3 are within 1.5-fold of each other in EC50: 0.305 nM for the first, 0.234 nM for the second.

Going from B10 to B4, the EC50 falls from 0.423 nM to 0.08 nM (5.3-fold). The second is the more potent here.

Going from B5 to B6, the EC50 rises from 0.087 nM to 0.135 nM (1.6-fold).

First: B11
Second: B7
The EC50 of the first is 1.7-fold higher: 0.147 nM for the first, 0.085 nM for the second. The second is the more potent here.

— patent US20170022281A1 (AbbVie / Abbott, published 2017)
